Measured values from a protein production outcome set (Wang et al. 2014).

Test: label from the status in PepcDB records

**Q.** With “MLFNRHNKTTDSLQQTIAEQSRLLEAIDRSMAVIEFDLQGNVLRANANFLQTLGYREDQVTGQPHRLFCTPEYVRSSDYQQLWNRLRSGQFESGTFERVASNGQSLWLEASYNPIRDASGAVYKVVKYALDVTARVQEEVEARNKLDAIDRAMAVIEFNLDGSIIGANSNFLSRMGYSLAEIKGKHHRMFCKPELINSSAYQDFWNRLNRGEFFNGQFERIDRHGRTLWLEANYNPVYDASGRLCKVVKYAADVTQQVEKHEQDAQSASQAYHISVQTRKVAEQGTGVIQQAASEMRQIAENIEGSSSLIARLGERSEQITAIVNTIRAIADQTNLLALNAAIEAARAGDQGRGFAVVADEVRQLAARTSGSTAEISSMIDMIQNETQQAIKSMDGTRERAAKGVQLADQAGTVILQIRDGASEAVEAVSMFANERGAP” as the sequence, how does the protein production read?
**A.** failed

**Q.** With “MLFSASLIHRIEFAPQRELYFLALYRILEAGLIAALVFSPVSLLVDPESDPHLGTVVAVGYLLLATILLVWGRNERWFTPLVFGSTVADILAATLAIHALPKASAGIAMMLLFNVAAAAILLRLRFSMILAWIAGVAMLVEYIWTVLSEGDSSRSLAELLMFFTSYTAVAYMCHQAAQRARYSQALAEKRRAQIVNLAEINELIIRRMRTGVLVVDAANRIGLSNETAAALLGYDRQLVESDYDLATVAPELIMRLKCWRIGRHYEDTPLRLAPDQPEVQPRFVSLLADSGLTLIFLDDVSVVSRRAESLTLLALGRFSASLAHEIRNPLAAIKHASQLLEESSNLDKGDQRLLDIILKQCQRTNGIVESVLGLARRERANPENLDLVGFVSRFVDEYRQTLSSEYDNLEIQTLHSTVQALVDPRHLYQILAVLTHNALRYGRFPDTPAQVRIEVVYTGGSVGINVLDQGPGIPDAAVLQLFQPFFTTSDHGTGLGLYIARELCNANQSNLEYVAIPGGGACFRITLPGPYALIPN” as the sequence, how does the protein production read?
**A.** failed

**Q.** With “MLGLFLIFWGLLLLLSLATFDLRDPSLNHVVSNPTEIRNGAGMFGSYLGGMLADAFGIAAFLWPVGFIGLGARYIIVSFDIAWWRWAGLLALSLCMVTAGAAWELSLGDVNAGGVLGDLLYRFSWKALSPRGSTLVWLFLCIIGLQLTFDISWTALFRRIVDKVRADLEAHPVSRPQLPELKLPRLGLPSGLHLPGRKGAEGNAPATLAVVDVTPDGSDSTNGAPSVVAREASTPRGMPVETDDFVLSEDRLQPPASELPFEVVLDADTDGVADLTADVESDISEGAGRPKAKMRRKSQLPPLDLLHSALNEDSRPDREVLEGKGLSLTNCLSDFGVQGELTRITPGPVVTMFEFRPAPGVKVSRIANLSDDLALALKAIAVRIQAPIPGTDTVGIEIPNETRETVCFKELLSSDTFKGASSLLTLAIGKDIAGRPTVADLSKMPHLLVAGATGAGKSVCLNSILLSILYKARPEDVKLLLVDPKRIELAVYADLPHLVHPVVTEMAHAKNALDWAVHEMDKRYEGMARLGVRNIAGYNQKLEDMGKERPADLADLEAMPYLVIIIDELADLMLTAAKEVETSIVRLAQLARAAGIHLILATQRPSVDVVTGLIKANFPCRISFQVTSKHDSRTILDTVGAEFLLGKGDMLFKPSGGKLQRLHGAFVSDDDVNGVVAFWKKQQPPSYKVDFAEWGNEGTLDGNGGSGGAGDLADDPVYAEAVEFVMGQGRASISLIQRRFRIGFNRAARYVEQMEQDGIIGPADGSKPRSVIRGKE” as the sequence, how does the protein production read?
**A.** failed

**Q.** With “MLGLKTSIIGRRVIYFQEITSTNEFAKTSYLEEGTVIVADKQTMGHGRLNRKWESPEGGLWLSIVLSPKVPQKDLPKIVFLGAVGVVETLKEFSIDGRIKWPNDVLVNYKKIAGVLVEGKGDKIVLGIGLNVNNKVPNGATSMKLELGSEVPLLSVFRSLITNLDRLYLNFLKNPMDILNLVRDNMILGVRVKILGDGSFEGIAEDIDDFGRLIIRLDSGEVKKVIYGDVSLRFL” as the sequence, how does the protein production read?
**A.** not failed

**Q.** With “MLGLLRRLFDNNEREIARYYKQVVEPVNRLEAEVEKLPDLAAAYRELKEKHEKGASLDELLPMAFALTRESAKRYLGMRHFDVQLIGGAVLHEGKIAEMKTGEGKTLVATLAVALNALTGKGVHVVTVNDYLARRDAEWMGPVYRGLGLSVGVIQHASTPAERRKAYLADVTYVTNSELGFDYLRDNMAISPDQLVLRHDHPLHYAIIDEVDSILIDEARTPLIISGPAEKATDLYYKMAEIAKKLERGLPAEPGVRKEPTGDYTVEEKNRSVHLTLQGIAKAEKLLGIEGLFSPENMELAHMLIQAIRAKELYHRDRDYIVQDGQVIIVDEFTGRLMPGRRYGEGLHQAIEAKEGVRIERENQTLATITYQNFFRLYEKRAGMTGTAKTEEKEFQEIYGMDVVVVPTNRPVIRKDFPDVVYRTEKGKFYAVVEEIAEKYERGQPVLVGTISIEKSERLSQMLKEPRLYLPRLEMRLELFKKASQKQQGPEWERLRKLLERPAQLKDEDLAPFEGLIPPKGNLRTAWEGLKRAVHTLAVLRQGIPHQVLNAKHHAREAEIVAQAGRSKTVTIATNMAGRGTDIKLGGNPEYLAAALLEKEGFDRYEWKVELFIKKMVAGKEEEARALAQELGIREELLERIREIREECKQDEERVRALGGLFIIGTERHESRRIDNQLRGRAGRQGDPGGSRFYVSFDDDLMRLFASDRVIAMLDRMGFDDSEPIEHPMVTRSIERAQKRVEDRNFAIRKQLLQFDDVLSRQREVIYAQRRLILLGKDEEVKEAAIGMVEETVASLAENFLNPEVHPEDWDLEGLKATLLDTAPQLQDFPFAELRALKAEEAVERLVEAALKAYEAREAELSPPLMRAVERFVILNVVDNAWKEHLHNLDVLRQGIFLRGYGQKDPFQEYKIEATRLFNEMVAFIKSEVAKFLFRLKVEAEPVRPVREAPYVPVPEAKPEPSEVFGVERKRATPPPQPGLSRAERRRLMRQEKKRKK” as the sequence, how does the protein production read?
**A.** not failed

**Q.** With “MLGMGVFKQLIKGLYEWLLHSIDVATQHLVAIVLKISVVKYLIKEFHDRFIYFIDLIAQHFIIVALSSFLVLVFGVLIGVLVFYNSKARAFLLPVVNFLYTIPSLALFALFIPVIGVGLKNALLVLVLYGLLPIVHSTYNALKEVREEVIKAAIGLGCNPKELFFKVRFLLAIPQILAGLRIAVVMLVAMAGIGALIGAGGLGQAIFRGLNTQNTTLLVAGSLIIALFSVLADKFVSVFQHENALQRLFSQNATKKQKRRVYTNLAVFLFLLLASALWLIPRNAIEEKPLVVATKPSSEQYILGEILSLLLEKHHIPIKRAFGIGGGTMNIHPALIRGDFDLYVEYTGTAWVNTLKNPLTQKVDFETIKKRYEKEFNLLWVGLLGFNNTYSLAISKEDAQKYAIETFSDLAFHSPNFDFGAEFDFFEREDAFKGLVKAYRFHFRSLHEMDINLRYKSFESHKINALDVFTTDAQIKELDLKVLKDDKGFFPNYQAGIVIRKEIVKKYPEALEILEKLDSKISDEKMQDLNYQVEVLKKSPQIVAKDFLERLGL” as the sequence, how does the protein production read?
**A.** failed

**Q.** Which protein production does the source give for “MLGRAFQDLNRLRQISAAMARHGFGAYLERMRLRDVLGRDAPPPGQPLPPPDRTTAARFRTMLGELGPTFIKLGQLLSSRPDVLPSHWVDELEKLQDACPPVGVAEIREEIERGLGRPVEALFAALDPVPLASASIAQVHRATTHEGVQVVVKVQRPRIREQIESDLALLHDLAGLLEAVVEETGIYTPTGVMEEFDRTIHEELDFSNEARNATAMYETSAGREFLVIPRVHKALSCDTVLTLDYVEGVKVSDVTAEAGFDLEQVARNVIEASFRQLFEDGLFHGDPHPGNILVLPGNRIALLDFGLVGRLSRVQQEALVTLIVAVALRDPETVARVLNRIGVPDARAPITEFREDIRVILDRYLGLRLDEIRSATLLRDLLDLAIRHRIRIPKEYAVLAKASVTIEGIIRRLYPKLDILEVGLPYAKELLLSRFNPSDASGLVMRALLKLQGLAEDVPTQLSQILVDLEGGKFRVNVASDAIDRIGGHVRALGVLLFLGLLAAGLTVGGLVVLAGGEGLLGGLALGAAALLCAFAAAYHLATLRMRKISLRRWLKR” here?
**A.** failed

**Q.** For “MLGYVWLVEGRELMRWQELCTPAVICVGGVDPSAGAGITADVRTAENMGVRAYTVATAITFQGSGSYRGERWVDSADIIRQIESLSAEMEPAVAKIGLIRDSDTLSLVVDCLKKVFPSIRIVWDPVLRASADSSAGQADRFNLEDITALSRIDFITPNLPEARHLLGCEPDDETLLDFYRRSGVGLVLKGGHAGESVVTDRIVYDGRCEALRLLRGGTGKHGTGCAHSTAFAAALALEQEPFTAAGMAQLYVSRLRERASGLLAMHKDLPVDPVVRLMSEIDLQFITHRQPDLSELEEAEAVCRIGVRWVQLRMKEASDEEMLHTACAVKAVCRHHGALFVVNDRVEIARQVDADGVHLGKEDMAIVEARRILGSNKIIGRTCNTMEDVRRAYAEGADYVGIGPYRYTETKQRLAPVLGLEGYKAIAACMQAEGIRLPAFAIGGIEDADIPLIRDCGIGGIAVSGSLIRKIKKNLEHHHHHH”, which protein production is on record?
**A.** failed

**Q.** Which protein production does the source give for “MLHIDDAMIEDAVTPQAAQEVLHAAFLDFGRGSAAMQRRVRTEAGGVKLSTLGAVIPGQGVAGAKVYTTIKGQFQFVILLFSAADGRPLATCDAGTLTRKRTAACTVLAAGALARPRSSVLGLFGAGTQGAEHAAQLSARFALEAILVHDPYASPEILERIGRRCGVPARMAAPADIAAQADIVVTATRSTTPLFAGQALRAGAFVGAIGSSLPHTRELDDEALRRARAVVVEWREQTLSEAGDLVLAAPDTGLDAKVVELADVLAGRAAARQADEDIVIYKSVGVGLEDVALAGYAYRRLAAQRGWPAP” here?
**A.** not failed

**Q.** With “MLHRSPKRMVAVALFLACLVISLTTVTFAAPAPTIQIQNPMVEGIRSPLRIASDSLGGVYVSDSLAKGVLKYDVVGHLAQTIKTAAPPQGIAVASDGTLLVGQGTYVSMYSAAGQEIGKLGAGEGQFKMADGITVDDDGSIYVVDCLDNSVQIFNAAGSFVKKFGSFGTTPGKFSTPSGIAFEKVSRQVAVVDTRTGRIQFFDKTGAYVRTIGSFGTNPLRFTAPQGVSFEYSSGSTPVLKRMYVVDTFQSTVQAIDPAATPVFLSYIGTYGSGNGKLMVPSDVLFDQATGRLLVVNGFGNVSVYGVDGGGVSVAVDLIPPALTINPVVSPFMSPTLDLSGTVEAGARLTIATGGTTTVGAISFPTPTTWQTTLSGFAPGGTTITVTARDAANNATNQSVTVSYLQSGPMLTMEPLPTFTADTFQQLSGLVDPGSVVTVTNATTGASAKALVFGNTWSYRLPLAAGANSITVKAEKSMSAATTVSATTTLDAIPPALAVSALADGSYTSGQVQNIQVMVTDANLDVVTLNGQQIVPVNGSYSTAITLKPGPNVIMAAAVDLAGNVTTDIRTIIYDGTRPVVSFTTPAEGTYVTSDHVSVSGIVDETAVVTVAGLPARMDGTSWSADVPLVPGMNTIDVVAVDLAGNVGSVKRTVTYDTEAPALVVSAPSQDVVTNRPTFGFAGNVTDPSPVTLTAEVDGAPVAVTVTDGSFTLAVTFANEGSHAVTFTATDAAGNASRVTRTVIYDGTAPALTLDPVNTPYPSVLTGTVEAGAAVTVEDRNGSAGTVTVSGEKWNAALEVGGYDAASLAVRATDVAGNSTVRSLVVNVPDGDLNGDGAVTVHDVILALRMFTRQMVPTANQLAHGDIGPLYQGKAKPNGVVDLVDAILIMRKALGMPSW” as the sequence, how does the protein production read?
**A.** failed

**Q.** With “MLIEIPNVFSKQEVSHLREQLDARRWIDGNQTSGAMATTRKRNQQLDKDDPVAVALGQQIMDRLLAHPQFVSAALPLQFYPPLFNRYQGGETFGYHIDNAIRSTPDGMIRTDLSATLFLSEPENYQGGELVIQDTYGQQSIKLSAGSLVLYPSSSLHQVTPVLSGERTAAFMWLQSMVRDEGQRRLLFQLDQSIQSLTAQTAAEQELFNLSGVYHNLLRRWSEL” as the sequence, how does the protein production read?
**A.** not failed

**Q.** For “MLIGIDLGTTNSAVALWHEGEARLVPNSLGALLTPSAVSVLQDGTTLVGAAAFERMAAKDGAAATSFKRLLGTDRKVRLGRKEFSAEDLSALVLQSLCADVEAHTGERPTEAVITVPAYFNDRQRKATRRAGELAGLSVRRLINEPTAAALAFGLKDKAEREPFLVFDLGGGTFDVSIVEMFEGIVEVRASAGDNRLGGDDFNGALAMAVKGRLDPDERLATLGEARAQALLLQAAERTRRALTDAPEAEFAVTAGDERLSTTVTASEFEAQAEGLLRRLRDPVVRALRDSQIDAASLSEIVLVGGATRMPLVRKAITRLFGRFPNASVHPDHAVALGAAIQGGLIARDGGLEEIRITDVCPFTLGIETAEHSVRGTIQQGLFSPIIERNTPVPVSRSGVYSTMGDGQKQIAVHIYQGEAREVSGNVKLGTLSVPVPSRPAGEVSIDVRFSYDSSGLLEVDVEVPLTGTRHNLVIIDEEDRKAAKDLDARRKALAALKHHPREEAANQLLLARAERCYEEFLGDVRAVIGGRTLSFTTALDSQDPRRIADAAAELAELLDMLEANPVL”, which protein production is on record?
**A.** failed
